Consider seven molecules from patent US20260274985A1 (MYTHIC THERAPEUTICS, published 2026).

Positions count from the first letter of the chain named.

For experiment [1], the target named is T1, Human TROP2 Protein, His Tag (Acro Biosystems) (human, UniProt P09758 27-274).
T1 construct: Bought antigen used at 50 nM in the Octet screen; also called TACSTD2; not shown: His tag
T1 sequence (looked up): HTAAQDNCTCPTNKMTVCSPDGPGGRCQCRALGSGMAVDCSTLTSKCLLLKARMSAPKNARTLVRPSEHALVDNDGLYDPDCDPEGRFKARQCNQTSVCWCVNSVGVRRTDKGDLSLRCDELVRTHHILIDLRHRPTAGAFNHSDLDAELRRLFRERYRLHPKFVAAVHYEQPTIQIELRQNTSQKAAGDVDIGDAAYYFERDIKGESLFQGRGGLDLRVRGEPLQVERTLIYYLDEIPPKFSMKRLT
Nature of the experiment: Octet BLI, IgG on anti-human Fc sensor; 3 = No binding. (In general: BLI is a label-free optical method that tracks binding on a fibre tip over time.)

Experiment [2] addresses T2, Human TROP2 Protein, His Tag (Acro Biosystems) (human, UniProt P09758 27-274).
T2 construct: Bought protein; also called TACSTD2; not shown: His tag
T2 sequence: T1 sequence (looked up)
Nature of the experiment: BLI (Octet), antibody on anti-human Fc sensor, 50 nM human TROP2-His, dissociation at pH 7.4 or 5.4; grade 2 = No change vs parent.

In experiment [3] the target is T2, Human TROP2 Protein, His Tag (Acro …). Nature of the experiment: BLI (Octet), antibody on anti-human Fc sensor, 50 nM human TROP2-His, dissociation at pH 7.4 or 5.4; grade 1 = pH dependent.
Experiment [4] concerns the target T3, Human TROP2 Protein, His Tag (Acro Biosystems) (human, UniProt P09758 27-274).
T3 construct: Bought protein; not shown: His tag
T3 sequence (looked up): T1 sequence (looked up)
Nature of the experiment: BLI (Octet), Ab on anti-human Fc sensor, 50 nM TROP2-His; 2 = No change vs parent. As for the experimental part: The resulting diluted supernatants were then captured on an anti-human Fc sensor (Forte Bio). A baseline was established using 1×PBST (50 mM Potassium Phosphate Buffer+150 mM NaCl+0.05% Tween 20) pH 7.4, and the sensor was associated with 50 nM of TROP2 (Human TROP2 Protein, His Tag, Acro Biosystems) in 1×PBST pH 7.4 for 120 sec to generate an association curve. In the dissociation phase, the antibody-antigen complex on the sensor was exposed to 1×PBST pH 7.4 or pH 5.4, for 300 sec. Association and dissociation phase curves were examined for the starting ABPC antibody (with no substitutions) and each corresponding antibody variant at pH 5.4 and pH 7.4 to inform on two criteria: a) enhanced dissociation (i.e., higher koff values) at pH 5.4 due to histidine or alanine substitution compared to the starting ABPC, (with no substitutions), and b) reduced dissociation at pH 7.4 (i.e., lower koff values) compared to pH 5.4 in the antibody variant itself and with the starting ABPC (with no substitutions). […] It was also noted that while some mutations obliterated TROP2 binding, others were tolerated with little or n change in TROP2 binding kinetics.
For each such table, the “MYT #” provides an identifier for each antigen binding protein (ABP), and the values from each column (reading along each row) provide characteristics and data associated with each ABP. […]

Experiment [5] has as its target T4, Human TROP2 Protein, His Tag (Acro Biosystems) (human, UniProt P09758 27-274).
T4 construct: also called TACSTD2; not shown: His tag
T4 sequence (looked up): T1 sequence (looked up)
Nature of the experiment: BLI (Octet), IgG on anti-human Fc sensor, 50 nM TROP2-His; 1 = pH dependent. The method, then: After allowing for four days of protein expression, cell culture supernatants were collected, quantified by SDS-PAGE analysis (DNS), and the pH dependence of the variant was evaluated using biolayer interferometry (BLI) on an Octet RED 96e instrument. Briefly, cell culture supernatants were diluted based on qualitative expression level of the variant determined by visual examination of SDS-PAGE gels, 5 μL of cell culture supernatant was diluted into 195 μL of 1×PBST, pH 7.4 for high expressors, 25 μL of cell culture supernatant was diluted into 175 μL of 1×PBST, pH 7.4 for medium expressors and 100 μL of cell culture supernatant was diluted into 100 μL of 1×PBST, pH 7.4 for low expressors for loading onto the sensor tips. The resulting diluted supernatants were then captured on an anti-human Fc sensor (Forte Bio). A baseline was established using 1×PBST (50 mM Potassium Phosphate Buffer+150 mM NaCl+0.05% Tween 20) pH 7.4, and the sensor was associated with 50 nM of TROP2 (Human TROP2 Protein, His Tag, Acro Biosystems) in 1×PBST pH 7.4 for 120 sec to generate an association curve. In the dissociation phase, the antibody-antigen complex on the sensor was exposed to 1×PBST pH 7.4 or pH 5.4, for 300 sec. […]

Experiment [6] concerns the target T5, Human TROP2 Protein, His Tag (Acro Biosystems) (human, UniProt P09758 27-274).
T5 construct: not shown: His tag
T5 sequence (looked up): T1 sequence (looked up)
Description: Octet BLI, IgG on anti-human Fc sensor; 3 = No binding.

Experiment [7] addresses T5, Human TROP2 Protein, His Tag (Acro …). Description: Octet BLI, IgG on anti-human Fc sensor, 50 nM TROP2-His; 1 = pH dependent.

B1: MYT11717 (antibody, V domains shown)
VH: QVQLQESGPGLVKPSETLSLTCTVSGGSISSYGVHWIRQPPGKGLEWIGVIHTSGVTDYNSALMGRVTISVDTSKNQFSLKLSSVTAADTAVYYCARDGDYDRYTMDYWGQGTLVTVSS
VL: DIVMTQSPDSLAVSLGERATINCRASKSVSTSGYSYMHWYQQKPGQPPKLLIYLASNLESGVPDRFSGSGSGTDFTLTISSLQAEDVAVYYCQHSRELPYTFGQGTKLEIK
notes: hu7E6SVG variant, His at HCV position 52 (H2 03); screened as IgG in Expi293 supernatant
B1: the binding result in experiment [1] is on record as “no binding (tested: 50 nM)”.

B2: MYT12452 (hu7E6SVG variant, LCV substitutions at 94, 101 (Ala at 94)) (antibody, V domains shown)
VH: B1 VH with H52W
VL: B1 VL with H94A, T101H
notes: Full IgG in Expi293 supernatant
For the molecule B2, in experiment [2], the binding result was “binds”.

B3: MYT12470 (hu7E6SVG variant, LCV substitutions at 93, 94, 97 (Ala at 94)) (antibody, V domains shown)
VH: B1 VH with H52W
VL: B1 VL with Q93H, H94A, E97H
notes: as for B2
With B3, the binding result in experiment [3] is recorded as “binds”.

B4: MYT11583 (antibody, V domains shown)
VH: QVQLQQSGSELKKPGASVKVSCKASGYTFTNYGMNWVKQAPGQGLKWMGWINTYTHEPTYTDDFKGRFAFSLDTSVSTAYLQISSLKADDTAVYFCARGGFGSSYWYFDVWGQGSLVTVSS
VL: DIQLTQSPSSLSASVGDRVSITCKASQDVSIAVAWYQQKPGKAPKLLIYSASYRYTGVPDRFSGSGSGTDFTLTISSLQPEDFAVYYCQQHYITPLTFGAGTKVEIK
notes: Sacituzumab variant, His at HCV position 56 (H2 07)
B4: the binding result in experiment [4] was “binds”.

B5: MYT13385 (antibody, V domains shown)
VH: B4 VH with H56G, D62H
VL: B4 VL with S30H, S52H
notes: Sacituzumab HC-LC pairing variant
Regarding B5, the binding result in experiment [5] is “binds”.

B6: MYT12395 (antibody, V domains shown)
VH: QVQLVQSGAEVKKPGASVKVSCKASGYTFTTAGMQWVRQAPGQGLEWMGWINTHSGVPKYAEDFKGRVTISADTSTSTAYLQLSSLKSEDTAVYYCARSGFGSSYWYFDVWGQGTLVTVSS
VL: B4 VL with L4M, S20T, I31T, S52H, D60S, Q89H, A100Q, V104L
notes: datopotamab VL 52, 89 substituted
For the molecule B6, in experiment [6], the binding result is listed as “no binding (tested: 50 nM TROP2)”.

B7: MYT12399 (antibody, V domains shown)
VH: B6 VH
VL: B4 VL with L4M, S20T, D28H, I31T, A51H, D60S, Q89H, A100Q, V104L
notes: datopotamab VL 28, 51, 89 substituted
B7: the binding result in experiment [7] is recorded as “binds”.
